According to publication PMC3578790, “Tight Interconnection and Multi-Level Control of Arabidopsis MYB44 in MAPK Cascade Signalling”:

Tests used:
MYB44 S145D = MYB44 S145D (Arabidopsis thaliana? (Arabidopsis, …, UniProt Q9FDW1 1-305, S145D)); assay: EMSA; no discernible difference from wild type; 10 mM Tris pH 8.0, 5 mM MgCl2, 100 mM KCl, 0.02% Triton X-100, 0.1 mg/ml BSA, 0.25% Tween, 2.5 mM DTT, 3 ng/ul poly(dIdC); 30 min room temperature; 5% PAGE in 0.5x TBE or TAE (TAE main) at 4 C; conditions: protein: recombinant; label: 5' Dy782 (Methods; called IRDye in Results); (only one strand printed)
MYB44 S145A = MYB44 S145A (Arabidopsis thaliana? (Arabidopsis, …, UniProt Q9FDW1 1-305, S145A)); assay: as above; conditions: protein: recombinant; label: 5' Dy782 (Methods; called IRDye in Results); (only one strand printed)
MYB44 S145A (Arabidopsis thaliana?, sequence (Q9FDW1 whole entry S145A): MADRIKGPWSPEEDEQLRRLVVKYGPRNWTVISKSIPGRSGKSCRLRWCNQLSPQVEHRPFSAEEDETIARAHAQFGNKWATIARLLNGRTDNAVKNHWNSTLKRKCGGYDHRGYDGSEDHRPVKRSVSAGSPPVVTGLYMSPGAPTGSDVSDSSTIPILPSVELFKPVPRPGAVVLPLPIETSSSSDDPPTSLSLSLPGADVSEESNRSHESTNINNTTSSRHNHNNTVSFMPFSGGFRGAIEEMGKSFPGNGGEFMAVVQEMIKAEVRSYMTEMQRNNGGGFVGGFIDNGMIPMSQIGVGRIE

MYB44 S145D (Arabidopsis thaliana?, sequence (Q9FDW1 whole entry S145D): as the sequence (Q9FDW1 whole entry S145A) above, with A145D counted along it

B1: MBSII (dsDNA)
DNA 1: AGCTTCAAAAGTTAGTTACG
DNA 2: CGTAACTAACTTTTGAAGCT
binding result (MYB44 S145D): binds
binding result (MYB44 S145A): binds
